Results reported in publication PMC3166298, “Phosphorylation Alters the Interaction of the Arabidopsis Phosphotransfer Protein AHP1 with Its Sensor Kinase ETR1” (PLoS ONE, 2011).

B7: ethylene receptor ethylene response 1 (ETR1), wild type (receptor, Arabidopsis, UniProt P49333 1-738, looked up)
chain: MEVCNCIEPQWPADELLMKYQYISDFFIAIAYFSIPLELIYFVKKSAVFPYRWVLVQFGAFIVLCGATHLINLWTFTTHSRTVALVMTTAKVLTAVVSCATALMLVHIIPDLLSVKTRELFLKNKAAELDREMGLIRTQEETGRHVRMLTHEIRSTLDRHTILKTTLVELGRTLALEECALWMPTRTGLELQLSYTLRHQHPVEYTVPIQLPVINQVFGTSRAVKISPNSPVARLRPVSGKYMLGEVVAVRVPLLHLSNFQINDWPELSTKRYALMVLMLPSDSARQWHVHELELVEVVADQVAVALSHAAILEESMRARDLLMEQNVALDLARREAETAIRARNDFLAVMNHEMRTPMHAIIALSSLLQETELTPEQRLMVETILKSSNLLATLMNDVLDLSRLEDGSLQLELGTFNLHTLFREVLNLIKPIAVVKKLPITLNLAPDLPEFVVGDEKRLMQIILNIVGNAVKFSKQGSISVTALVTKSDTRAADFFVVPTGSHFYLRVKVKDSGAGINPQDIPKIFTKFAQTQSLATRSSGGSGLGLAISKRFVNLMEGNIWIESDGLGKGCTAIFDVKLGISERSNESKQSGIPKVPAIPRHSNFTGLKVLVMDENGVSRMVTKGLLVHLGCEVTTVSSNEECLRVVSHEHKVVFMDVCMPGVENYQIALRIHEKFTKQRHQRPLLVALSGNTDKSTKEKCMSFGLDGVLLKPVSLDNIRDVLSDLLEPRVLYEGM
notes: Solubilised in beta-D-dodecylmaltoside; also called sensor kinase ETR1; AtETR1

Tests used:
[1] = target: CheW (UniProt P0A964); conditions: cited from earlier work
[2] = target: T1, dansylated AHP1 (Arabidopsis), Q9ZNV9; assay: fluorescence polarisation; Perrin plot of a single dansylated protein at 0.2 uM; 0.2 M potassium phosphate pH 8.0, 0.05% beta-D-dodecylmaltoside, 10 mM beta-cyclodextrin; 5-25 C; apparent molecular weight; conditions: remark: other sources report otherwise
T1 chain: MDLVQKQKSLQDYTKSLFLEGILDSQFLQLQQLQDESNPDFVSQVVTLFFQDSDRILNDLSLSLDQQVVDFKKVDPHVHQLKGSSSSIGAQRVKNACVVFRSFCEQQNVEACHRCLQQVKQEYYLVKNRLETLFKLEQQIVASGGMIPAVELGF

[3] = target: T1, dansylated AHP1 (Arabidopsis), Q9ZNV9; assay: fluorescence polarisation; Perrin plot of 2 uM ETR1 together with 0.2 uM dansylated AHP1; 0.2 M potassium phosphate pH 8.0, 0.05% beta-D-dodecylmaltoside, 10 mM beta-cyclodextrin; 5-25 C; apparent molecular weight; conditions: remark: other sources report otherwise
[4] = target: B7; assay: as above; conditions: both partners purified
[5] = target: T2, AHP1-GFP(S65T), wild type Arabidopsis histidine-containing phosphotransfer protein 1 fused to green fluorescent protein (Arabidopsis), Q9ZNV9; assay: fluorescence polarisation; Perrin plot (anisotropy against temperature/viscosity) of 20 nM AHP1-GFP; 50 mM Tris-HCl pH 7.5, 100 mM KCl, 0.1% beta-D-dodecylmaltoside, 0.002% PMSF; 10-30 C, 0-20% glycerol; apparent molecular weight; conditions: remark: other sources report otherwise
T2 chain: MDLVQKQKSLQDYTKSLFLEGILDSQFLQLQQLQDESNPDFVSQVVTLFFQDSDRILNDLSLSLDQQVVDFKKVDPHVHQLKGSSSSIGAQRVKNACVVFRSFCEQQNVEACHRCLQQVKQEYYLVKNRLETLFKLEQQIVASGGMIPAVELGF

[6] = target: T3, ETR1-D659A (Arabidopsis, UniProt P49333 1-738, D659A); assay: fluorescence polarisation; ETR1 mutant (0.04-20 uM) titrated to 8 nM AHP1 mutant-GFP(S65T); 50 mM Tris-HCl pH 7.5, 100 mM KCl, 0.1% beta-D-dodecylmaltoside, 0.002% PMSF; fit to a single binding site; conditions: both partners purified
T3 construct: Represents the non-phosphorylated state of the receiver domain
T3 sequence (looked up): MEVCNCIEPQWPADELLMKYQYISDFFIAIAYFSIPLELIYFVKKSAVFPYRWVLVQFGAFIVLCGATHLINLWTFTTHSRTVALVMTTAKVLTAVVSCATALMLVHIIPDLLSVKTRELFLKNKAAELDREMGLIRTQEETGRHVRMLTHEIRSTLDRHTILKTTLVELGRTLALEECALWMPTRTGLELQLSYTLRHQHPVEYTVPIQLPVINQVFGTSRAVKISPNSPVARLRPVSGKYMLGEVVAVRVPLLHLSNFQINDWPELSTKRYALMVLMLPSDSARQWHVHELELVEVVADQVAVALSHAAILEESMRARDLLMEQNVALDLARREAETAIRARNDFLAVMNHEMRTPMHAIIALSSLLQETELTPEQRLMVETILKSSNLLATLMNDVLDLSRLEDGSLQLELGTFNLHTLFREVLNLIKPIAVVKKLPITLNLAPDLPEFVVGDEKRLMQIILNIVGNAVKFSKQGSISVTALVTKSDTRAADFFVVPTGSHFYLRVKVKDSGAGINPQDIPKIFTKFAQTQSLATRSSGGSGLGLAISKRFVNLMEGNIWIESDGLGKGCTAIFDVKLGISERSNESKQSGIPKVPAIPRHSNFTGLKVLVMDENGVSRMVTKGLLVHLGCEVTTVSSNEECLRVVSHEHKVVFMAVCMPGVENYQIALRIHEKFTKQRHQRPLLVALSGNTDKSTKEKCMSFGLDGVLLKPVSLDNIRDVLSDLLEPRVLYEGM

[7] = target: T4, ETR1-D659E (Arabidopsis, UniProt P49333 1-738, D659E); assay: as above; conditions: both partners purified
T4 construct: Phosphomimetic of the receiver domain aspartate; also called ETR1 mutant mimicking permanent phosphorylation
T4 sequence (looked up): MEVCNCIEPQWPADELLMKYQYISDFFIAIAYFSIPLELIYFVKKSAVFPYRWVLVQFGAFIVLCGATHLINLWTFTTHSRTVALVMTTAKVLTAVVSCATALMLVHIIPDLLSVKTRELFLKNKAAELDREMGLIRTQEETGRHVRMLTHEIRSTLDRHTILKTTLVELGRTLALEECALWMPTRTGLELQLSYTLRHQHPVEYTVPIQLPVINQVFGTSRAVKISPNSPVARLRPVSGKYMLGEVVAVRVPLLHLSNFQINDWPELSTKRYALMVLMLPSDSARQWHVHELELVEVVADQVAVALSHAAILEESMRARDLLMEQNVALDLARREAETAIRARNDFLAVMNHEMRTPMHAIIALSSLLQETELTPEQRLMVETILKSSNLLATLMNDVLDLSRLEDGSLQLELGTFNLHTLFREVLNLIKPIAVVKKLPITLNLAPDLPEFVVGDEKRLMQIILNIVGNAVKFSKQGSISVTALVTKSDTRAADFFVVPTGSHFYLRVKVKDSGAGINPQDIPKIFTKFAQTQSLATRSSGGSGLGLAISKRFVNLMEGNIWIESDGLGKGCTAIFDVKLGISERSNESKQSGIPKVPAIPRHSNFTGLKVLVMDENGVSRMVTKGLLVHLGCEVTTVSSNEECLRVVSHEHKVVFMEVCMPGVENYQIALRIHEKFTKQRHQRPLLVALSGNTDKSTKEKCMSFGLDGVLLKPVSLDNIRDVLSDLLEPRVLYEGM

[8] = target: the molecule itself; assay: fluorescence polarisation; Perrin plot of a single dansylated protein at 0.2 uM; 0.2 M potassium phosphate pH 8.0, 0.05% beta-D-dodecylmaltoside, 10 mM beta-cyclodextrin; 5-25 C; apparent molecular weight
[9] = target: the molecule itself; assay: fluorescence polarisation; Perrin plot of 2 uM ETR1 together with 0.2 uM dansylated AHP1; 0.2 M potassium phosphate pH 8.0, 0.05% beta-D-dodecylmaltoside, 10 mM beta-cyclodextrin; 5-25 C; apparent molecular weight

Chain of CheW (P0A964 whole entry): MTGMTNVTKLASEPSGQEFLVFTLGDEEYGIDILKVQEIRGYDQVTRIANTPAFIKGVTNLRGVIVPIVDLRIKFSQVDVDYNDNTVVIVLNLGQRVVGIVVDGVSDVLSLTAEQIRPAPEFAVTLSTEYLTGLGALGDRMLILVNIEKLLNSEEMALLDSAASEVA

CheA (from UniProt P07363)
Kd [1]: 17 µM

B1: dansylated AHP1, Q9ZNV9 1-154 (natural protein)
chain: MDLVQKQKSLQDYTKSLFLEGILDSQFLQLQQLQDESNPDFVSQVVTLFFQDSDRILNDLSLSLDQQVVDFKKVDPHVHQLKGSSSSIGAQRVKNACVVFRSFCEQQNVEACHRCLQQVKQEYYLVKNRLETLFKLEQQIVASGGMIPAVELGF
modifications: here or on the partner: dansyl label (dansyl chloride; typical ratio of protein-dansyl labeling 1:4), positions not given; dansyl label (dansyl chloride; typical ratio of protein-dansyl labeling 1:4), positions not given
stoichiometry N [2]: 2 | stoichiometry N [3]: 2

B2: dansylated AHP1 (natural protein, Arabidopsis, UniProt Q9ZNV9 1-154, looked up)
chain: MDLVQKQKSLQDYTKSLFLEGILDSQFLQLQQLQDESNPDFVSQVVTLFFQDSDRILNDLSLSLDQQVVDFKKVDPHVHQLKGSSSSIGAQRVKNACVVFRSFCEQQNVEACHRCLQQVKQEYYLVKNRLETLFKLEQQIVASGGMIPAVELGF
modifications: dansyl label (dansyl chloride; typical ratio of protein-dansyl labeling 1:4), positions not given
notes: Theoretical molecular weight printed as 18.3 kDa; also called AHP1 (dansylated, without GFP); source: recombinant, purified from the bacterial host, then dansylated
binding result [4]: binds

B3: AHP1-GFP(S65T), wild type Arabidopsis histidine-containing phosphotransfer protein 1 fused to green fluorescent protein, Q9ZNV9 1-154 (natural protein)
chain: MDLVQKQKSLQDYTKSLFLEGILDSQFLQLQQLQDESNPDFVSQVVTLFFQDSDRILNDLSLSLDQQVVDFKKVDPHVHQLKGSSSSIGAQRVKNACVVFRSFCEQQNVEACHRCLQQVKQEYYLVKNRLETLFKLEQQIVASGGMIPAVELGF
stoichiometry N [5]: 2

B4: AHP1(H79E)-GFP(S65T) (natural protein, Arabidopsis, UniProt Q9ZNV9 1-154, looked up)
chain: MDLVQKQKSLQDYTKSLFLEGILDSQFLQLQQLQDESNPDFVSQVVTLFFQDSDRILNDLSLSLDQQVVDFKKVDPHVEQLKGSSSSIGAQRVKNACVVFRSFCEQQNVEACHRCLQQVKQEYYLVKNRLETLFKLEQQIVASGGMIPAVELGF
notes: AHP1, Arabidopsis histidine-containing phosphotransfer protein 1; also called AHP1 mutant mimicking permanent phosphorylation
Kd [6]: 3.6 µM | Kd [7]: 16.3 µM

B5: AHP1(H79A)-GFP(S65T) (natural protein, Arabidopsis, UniProt Q9ZNV9 1-154, looked up)
chain: MDLVQKQKSLQDYTKSLFLEGILDSQFLQLQQLQDESNPDFVSQVVTLFFQDSDRILNDLSLSLDQQVVDFKKVDPHVAQLKGSSSSIGAQRVKNACVVFRSFCEQQNVEACHRCLQQVKQEYYLVKNRLETLFKLEQQIVASGGMIPAVELGF
notes: AHP1, Arabidopsis histidine-containing phosphotransfer protein 1
Kd [6]: 15.4 µM | Kd [7]: 2.6 µM

B6: dansylated ETR1 (receptor, Arabidopsis, UniProt P49333 1-738, looked up)
chain: MEVCNCIEPQWPADELLMKYQYISDFFIAIAYFSIPLELIYFVKKSAVFPYRWVLVQFGAFIVLCGATHLINLWTFTTHSRTVALVMTTAKVLTAVVSCATALMLVHIIPDLLSVKTRELFLKNKAAELDREMGLIRTQEETGRHVRMLTHEIRSTLDRHTILKTTLVELGRTLALEECALWMPTRTGLELQLSYTLRHQHPVEYTVPIQLPVINQVFGTSRAVKISPNSPVARLRPVSGKYMLGEVVAVRVPLLHLSNFQINDWPELSTKRYALMVLMLPSDSARQWHVHELELVEVVADQVAVALSHAAILEESMRARDLLMEQNVALDLARREAETAIRARNDFLAVMNHEMRTPMHAIIALSSLLQETELTPEQRLMVETILKSSNLLATLMNDVLDLSRLEDGSLQLELGTFNLHTLFREVLNLIKPIAVVKKLPITLNLAPDLPEFVVGDEKRLMQIILNIVGNAVKFSKQGSISVTALVTKSDTRAADFFVVPTGSHFYLRVKVKDSGAGINPQDIPKIFTKFAQTQSLATRSSGGSGLGLAISKRFVNLMEGNIWIESDGLGKGCTAIFDVKLGISERSNESKQSGIPKVPAIPRHSNFTGLKVLVMDENGVSRMVTKGLLVHLGCEVTTVSSNEECLRVVSHEHKVVFMDVCMPGVENYQIALRIHEKFTKQRHQRPLLVALSGNTDKSTKEKCMSFGLDGVLLKPVSLDNIRDVLSDLLEPRVLYEGM
modifications: dansyl label (dansyl chloride; typical ratio of protein-dansyl labeling 1:4), positions not given
notes: In a dodecylmaltoside micelle; theoretical molecular weight printed as 84.9 kDa; also called ETR1 (dansylated); source: recombinant, purified from the bacterial host, then dansylated
stoichiometry N [8]: 2

B7
stoichiometry N [9]: 2
